Legend:
[1] = target: T1, TcdA from C. difficile ribotype 027 (Clostridium difficile ribotype 027 …, UniProt P16154 1-2710); experiment: sandwich ELISA
T1 construct: also called 027 TcdA; TcdA R20291 (027)

[2] = target: T2, TcdA from C. difficile ribotype 087 (Clostridium difficile ribotype 087 …, UniProt P16154 1-2710); experiment: sandwich ELISA
T2 construct: also called 087 TcdA; TcdA 10463 (087)

[3] = target: T3, TcdB from C. difficile ribotype 087 (Clostridium difficile ribotype 087, UniProt P18177 2-2366); experiment: ELISA: TcdB coat, quadrahead, detected with rabbit polyclonal anti-ICVD
T3 construct: also called 087 TcdB

[4] = target: T1, TcdA from C. difficile ribotype 027; experiment: sandwich ELISA: TcdB coat, quadrahead, TcdA 0-20 ng/ml, rabbit anti-TcdA pAb

Measured: binding result

B1: ID-3C (bispecific antibody)
chain: DVQLQESGGGLVQAGDSLRLSCAASGATLSSYTIGWFRQAPEKEREFVAGSSRDGRTNYYANSVKGRFTISRDNAKNTVYLQMNSLKPEDTAVYYCAAHTTSGVPVRERSYAYWGQGTQVTVSSGGGGSGGGGSGGGGSGGGGSDVQLQESGGGLVQAGGSLRLSCAASGATSDVYAIGWFRQVPGKEREFVATINRSGSDSYYADSVKGRFTISRDNAKNTVYLQMNSLKPEETAVYYCAASRSDCIGYGCRRVSQDYWGQGTQVTVSSGGGGSGGGGSGGGGSGGGGSDVQLQESGGGLVQAGGSLRLSCVISGMDFSHKPAGWFRQAPGKEREFVASITTRASTHYADSVKGRFTISRDNAKNTVYLEMNSLKPEDTAVYYCNSEYYWGQGTQVTVSSGGGGSGGGGSGGGGSGGGGSDVQLQESGGGLVQAGGSLRLSCAASGATFSSYYIGWFRQAPGKEREFVAAINGSGGNRISADSVKGRFTISRDNAKNTVYLQLNSLKPEDTAVYYCAASLTYYGRSARYDYWGQGTQVTVSS
binds: [1] | [2] | [3]

B2: ID-1C (bispecific antibody)
chain: DVQLQESGGGLVQAGGSLRLSCAASGATSDVYAIGWFRQVPGKEREFVATINRSGSDSYYADSVKGRFTISRDNAKNTVYLQMNSLKPEETAVYYCAASRSDCIGYGCRRVSQDYWGQGTQVTVSSGGGGSGGGGSGGGGSGGGGSDVQLQESGGGLVQAGGSLRLSCVISGMDFSHKPAGWFRQAPGKEREFVASITTRASTHYADSVKGRFTISRDNAKNTVYLEMNSLKPEDTAVYYCNSEYYWGQGTQVTVSSGGGGSGGGGSGGGGSGGGGSDVQLQESGGGLVQAGDSLRLSCAASGATLSSYTIGWFRQAPEKEREFVAGSSRDGRTNYYANSVKGRFTISRDNAKNTVYLQMNSLKPEDTAVYYCAAHTTSGVPVRERSYAYWGQGTQVTVSSGGGGSGGGGSGGGGSGGGGSDVQLQESGGGLVQAGGSLRLSCAASGATFSSYYIGWFRQAPGKEREFVAAINGSGGNRISADSVKGRFTISRDNAKNTVYLQLNSLKPEDTAVYYCAASLTYYGRSARYDYWGQGTQVTVSS
notes: also called 1D-1C
binds: [2] | [3] | [4]
